In assay [1] the target is MIF receptor CD74 ectodomain (CD74 73-232, sCD74) (UniProt P04233). In words: SPR (BIAcore 2000), sCD74 immobilized.
Assay [2] shares this target. As to the kind of experiment: SPR (BIAcore 2000), sCD74 immobilized, ligand in solution. In general terms: SPR reads the build-up and loss of mass on a sensor chip optically.
The target is the same in assay [3]. As to the kind of experiment: competition binding assay on sCD74, biotinylated human MIF as competitor.
Assay [4] shares this target. As to the kind of experiment: competition binding assay on sCD74 with biotinylated human MIF as the competed ligand [panel A].

Take “human D-dopachrome tautomerase (D-DT), recombinant native-sequence protein (from UniProt P30046 2-118) (ligand)”: in assay [1], the affinity relative to MIF (% lower than MIF) worked out at 60, the fold higher binding rate than MIF worked out at 3 fold, the off-rate constant (koff) was 0.00066 s⁻¹ and the kon was found to be 120000 M⁻¹ s⁻¹. Moreover, the Kd in assay [2] is 5.42 nM. Moreover, the maximal effect on MIF binding compared with MIF in assay [3] came out at 50%. In assay [4], this substance yielded an IC50 (read off the curve) of 300 nM.

What is called koff is the rate constant with which the complex falls apart. As a reminder, the kon is a measure of how fast the partners come together. One may read the Kd as the constant that tells how readily two partners part at equilibrium.

The values above are taken from patent publication US20140030266A1.
